Reference: article doi:10.1101/2021.07.23.453529, “TELSAM polymers accelerate crystallization of fused target proteins by stabilizing minimal crystal contacts and in the absence of direct inter-TELSAM contacts” (bioRxiv, 2021)

B1: 3TEL (three tandem TELSAM monomers) of 3TEL-rigid-DARPin (domain or fragment, human)
chain: GSIRLPAHLRLQPIYWSRDDVAQWLKWAENEFSLRPIDSNTFEMNGKALLLLTKEDFRYRSPHSGDELYELLQHILKQRPGGGGSTSIRLPAHLRLQPIYWSRDDVAQWLKWAENEFSLRPIDSNTFEMNGKALLLLTKEDFRYRSPHSGDVLYELLQHILKQRPGGGGSTSIRLPAHLRLQPIYWSRDDVAQWLKWAENEFSLRPIDSNTFEMNGKALLLLTKEDFRYRSPHSGDVLYELLQHILKQR
notes: residue printed before TEL S47, left after SUMO cleavage; first TEL-SAM domain of 3TEL (human ETS variant transcription factor 6), the only one with V112E; flexible inter-TELSAM linker, as in PDB ID 2QAR; second TEL-SAM domain of 3TEL (human ETS variant transcription factor 6); third TEL-SAM domain of 3TEL (human ETS variant transcription factor 6); written apart for the contacts between the two …

Legend:
[1] = target: B1; assay: crystal structure; 3TEL-rigid-DARPin, 15 mg/mL, sitting drop, HEPES pH 7.3-7.4 with PEG; P1211, 2 molecules per asymmetric unit; contacts within the polymer and the crystal lattice; settings: both partners purified
[2] = target: the molecule itself; assay: crystal structure; 1TEL-flex-vWa, 20 mg/mL, sitting drop, 100 mM Bis-Tris, pH 5.7, 3.0 M NaCl; P65, 1 molecule per asymmetric unit; contacts within the polymer and the crystal lattice
[3] = target: the molecule itself; assay: crystal structure; 3TEL-rigid-DARPin, 15 mg/mL, sitting drop, HEPES pH 7.3-7.4 with PEG; P1211, 2 molecules per asymmetric unit; contacts within the polymer and the crystal lattice

Binder	binding result [3]	other results
DARPin (Designed Ankyrin Repeat Protein) of 3TEL-rigid-DARPin (designed binder, Designed Ankyrin Repeat Protein (DARPin), modelled from PDB ID 4J7W; Stood in the crystal joined on one chain with 3TEL; also called DAPRin; source: E. coli BL21(DE3), purified, as part of the 3TEL-rigid-DARPin chain) DLGKKLLEAARAGQDDEVRILMANGADVNATDNDGYTPLHLAASNGHLEIVEVLLKNGADVNASDLTGITPLHAAAATGHLEIVEVLLKHGADVNAYDNDGHTPLHLAAKYGHLEIVEVLLKHGADVNAQDKFGKTAFDISIDNGNEDLAEILQKLN		binding result [1]: binds
1TEL (single TELSAM monomer) of 1TEL-flex-vWa (domain or fragment, human, residue printed before TEL S47, left after SUMO cleavage; sterile alpha motif (SAM) domain of human ETS variant transcription factor 6 (TEL); Stood in the crystal joined on one chain with the vWa domain through one alanine; written apart for the contacts between the two parts) GSIALPAHLRLQPIYWSRDDVAQWLKWAENEFSLRPIDSNTFEMNGKALLLLTKEDFRYRSPHSGDELYELLQHILAQ		binding result [2]: binds
B1	binds	
3TEL-rigid-DARPin (other, human, residue printed before TEL S47, left after SUMO cleavage; first TEL-SAM domain of 3TEL (human ETS variant transcription factor 6), the only one with V112E; flexible inter-TELSAM linker, as in PDB ID 2QAR; second TEL-SAM domain of 3TEL (human ETS variant transcription factor 6); third TEL-SAM domain of 3TEL (human ETS variant transcription factor 6); rigid alpha-helical connection between 3TEL and …) GSIRLPAHLRLQPIYWSRDDVAQWLKWAENEFSLRPIDSNTFEMNGKALLLLTKEDFRYRSPHSGDELYELLQHILKQRPGGGGSTSIRLPAHLRLQPIYWSRDDVAQWLKWAENEFSLRPIDSNTFEMNGKALLLLTKEDFRYRSPHSGDVLYELLQHILKQRPGGGGSTSIRLPAHLRLQPIYWSRDDVAQWLKWAENEFSLRPIDSNTFEMNGKALLLLTKEDFRYRSPHSGDVLYELLQHILKQRDLEAEAAAAEDLGKKLLEAARAGQDDEVRILMANGADVNATDNDGYTPLHLAASNGHLEIVEVLLKNGADVNASDLTGITPLHAAAATGHLEIVEVLLKHGADVNAYDNDGHTPLHLAAKYGHLEIVEVLLKHGADVNAQDKFGKTAFDISIDNGNEDLAEILQKLN	binds	
